Among the data in publication PMC4416025, “Characterization of Hydrogen Metabolism in the Multicellular Green Alga Volvox carteri” (PLoS ONE, 2015) are Km values, retold here.

Data set [1] has as its system T1, C[n+]1ccc(-c2cc[n+](C)cc2)cc1.
T1 construct: cDNA-derived, N-terminal 6xHis tag with GGG linker; sense cloning primer encodes tag then KCTSAV (no start Met, N-terminus probably truncated); maturation possibly incomplete
Put plainly: H2 evolution assay, gas chromatography. To be noted: electron donor, methyl viologen reduced in situ by sodium dithionite; anaerobic. The class given is biochemical, Volvox carteri.

Data set [2] concerns T2, C[n+]1ccc(-c2cc[n+](C)cc2)cc1.
T2 construct: cDNA-derived, N-terminal 6xHis tag with GGG linker; sense cloning primer encodes tag then MDELDKP; tag removal not mentioned
Briefly: H2 evolution assay, gas chromatography. To be noted: electron donor, methyl viologen reduced in situ by sodium dithionite; anaerobic. The class given is biochemical, Volvox carteri.

As to HYDA2 (Volvox carteri f. nagariensis), in data set [1], the Km was 2820 µM.

With HYDA1 (Volvox carteri f. nagariensis), the Km in data set [2] was determined as 2760 µM.
